# Assay results reported in US20160031958.
# T1: FLAG-REST (810-910)-GFP reporter peptide, unmutated
# T1 chain: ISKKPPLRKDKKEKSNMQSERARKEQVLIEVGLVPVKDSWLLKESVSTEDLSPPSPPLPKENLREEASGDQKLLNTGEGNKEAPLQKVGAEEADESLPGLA
# T2: FLAG-REST (unmutated, full-length), Q13127
# T2 chain: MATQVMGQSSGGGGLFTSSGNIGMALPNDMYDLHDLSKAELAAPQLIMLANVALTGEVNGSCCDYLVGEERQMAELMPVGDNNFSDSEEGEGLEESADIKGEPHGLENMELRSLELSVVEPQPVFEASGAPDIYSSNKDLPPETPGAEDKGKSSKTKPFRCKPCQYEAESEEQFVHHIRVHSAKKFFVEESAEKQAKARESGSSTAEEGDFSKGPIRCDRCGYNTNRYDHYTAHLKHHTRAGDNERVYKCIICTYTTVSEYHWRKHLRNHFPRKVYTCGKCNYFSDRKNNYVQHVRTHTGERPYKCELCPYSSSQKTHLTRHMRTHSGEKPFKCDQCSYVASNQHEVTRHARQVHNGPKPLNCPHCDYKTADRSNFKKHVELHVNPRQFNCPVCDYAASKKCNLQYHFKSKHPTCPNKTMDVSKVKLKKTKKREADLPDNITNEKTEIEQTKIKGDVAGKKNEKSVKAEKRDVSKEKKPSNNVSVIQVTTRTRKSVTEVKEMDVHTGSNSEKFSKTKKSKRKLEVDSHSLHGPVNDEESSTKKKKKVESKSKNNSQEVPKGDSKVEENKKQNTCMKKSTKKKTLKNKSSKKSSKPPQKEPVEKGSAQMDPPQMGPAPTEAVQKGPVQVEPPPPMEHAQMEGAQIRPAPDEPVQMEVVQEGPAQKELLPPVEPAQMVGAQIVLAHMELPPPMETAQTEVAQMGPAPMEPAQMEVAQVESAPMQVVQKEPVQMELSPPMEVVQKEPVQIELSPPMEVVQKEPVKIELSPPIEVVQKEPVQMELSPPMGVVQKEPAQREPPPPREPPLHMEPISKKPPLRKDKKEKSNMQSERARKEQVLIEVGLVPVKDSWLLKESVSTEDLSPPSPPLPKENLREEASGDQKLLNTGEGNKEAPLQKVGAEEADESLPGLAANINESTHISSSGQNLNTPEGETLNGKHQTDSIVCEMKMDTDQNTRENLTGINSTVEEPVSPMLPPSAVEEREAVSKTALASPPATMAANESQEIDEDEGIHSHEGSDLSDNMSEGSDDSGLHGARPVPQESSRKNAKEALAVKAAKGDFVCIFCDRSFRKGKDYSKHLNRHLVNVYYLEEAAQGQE
# B1: FLAG-CTDSP1 (protein)
# chain: MDSSAVITQISKEEARGPLRGKGDQKSAASQKPRSRGILHSLFCCVCRDDGEALPAHSGAPLLVEENGAIPKQTPVQYLLPEAKAQDSDKICVVIDLDETLVHSSFKPVNNADFIIPVEIDGVVHQVYVLKRPHVDEFLQRMGELFECVLFTASLAKYADPVADLLDKWGAFRARLFRESCVFHRGNYVKDLSRLGRDLRRVLILDNSPASYVFHPDNAVPVASWFDNMSDTELHDLLPFFEQLSRVDDVYSVLRQPRPGS
# Experiments:
# [1] = target: T1, FLAG-REST (810-910)-GFP reporter …
# [2] = target: T2, FLAG-REST (unmutated, full-length), …
protein,measurement,setting,value
B1,in-gel GFP fluorescence on native gel (mobility shift),[1],Dephosphorylation by CTDSP1 was also observed in the REST reporter peptides
same,Western blot with REST phospho-specific polyclonal antibody,[2],exogenously expressed FLAG-CTDSP1 dephosphorylated these sites in full-length REST
